# Test results taken from patent US7592188B2, “Live cell biosensors” (The Scripps Research Institute, priority 2004, dated 2009).
# Entries after “also recorded” stand apart in the source; their conditions may differ.
# B1: MeroCBD (conjugate)
# chain: DIQNPDITSSRYRGLPAPGPSPADKKRSGKKKISKADIGAPSGFKHVSHVGWDPQNGFDVNNLDPDLRSLCSRAGISEAQLTDAETSKLIYDFIEDQGGLEAVRQEMRRQEPLP
# modifications: left off: large carriers
# B2: I—SO-WASP biosensor: I—SO dye attached at position F271C of the WASP fragment (conjugate)
# chain: DIQNPDITSSRYRGLPAPGPSPADKKRSGKKKISKADIGAPSGFKHVSHVGWDPQNGFDVNNLDPDLRSLCSRAGISEAQLTDAETSKLIYDFIEDQGGLEAVRQEMRRQEPLPPPPPPS
# modifications: left off: small tags and cut ends
# notes: I—SO dye attached at position F271C of the WASP fragment
# What was measured:
# Rho kinase = experiment: Extension and retraction of protrusions with Rho kinase inhibitor; assay type: cell-based
# Text: These possibilities were distinguished by blocking retraction using an inhibitor of Rho kinase (Y27632).
# Cdc42 = experiment: MeroCBD biosensor imaging of Cdc42 activation in living cells; assay type: cell-based; settings: in words
# Text: The I—SO labeled WASP fragment provided a straightforward means to assay Cdc42 activation in cell lysates. By simply adding the biosensor to the lysate, the fluorescence readout of Cdc42 activation. This method was used to determine the kinetics of Cdc42 activation in neutrophils after stimulation with chemoattractant fMetLeuPhe (FMLP) peptide. Results obtained paralleled those previously reported using well-established methods (Benard et al., J. Biol. Chem. 275: 36457 (2000). Fluorescence of the biosensor was also used to monitor the real-time kinetics of Cdc42 GDP/GTP exchange in vitro. Because the labeled WASP fragment responded to activated Cdc42 through fluorescence intensity modulation, a ratiometric imaging approach was used to correct for effects of varying cell thickness, uneven illumination, and other factors that could affect imaging of dye intensity (Bright et al., Methods Cell Biol. 14: 157 (1989). The biosensor was fused to enhanced green fluorescent protein (EGFP) to provide a fluorescence signal insensitive to Cdc42 binding, but with the same subcellular distribution as the sensitive dye. The dye image could be divided by the EGFP image to normalize changes in dye intensity not originating from Cdc42 binding. […] Fluorescence response and Cdc42 binding of the biosensor remained intact after these modifications. […]
# Rac = target: T1, Rac (Homo sapiens, UniProt P63000); experiment: Specificity of I-SO WASP biosensor for activated GTPases; assay type: binding; settings: concentrations well above physiological levels
# T1 construct: 6His; made in house; host or cells: E. coli BL21DE3, only by the words 'analogous procedures'
# Method: (§1) Further studies were conducted using the I—SO dye 4b attached at position F271 C of the WASP fragment. This biosensor had properties similar to the S—SO biosensor described above. […] To determine the specificity of the biosensor, interactions with different activated GTPases were examined. The biosensor distinguished proteins closely related to Cdc42 from other members of the Rho family.
# TC10 = TC10 (Homo sapiens, UniProt P17081); experiment: as above; assay type: binding
# Sequence of TC10 (P17081 whole entry, species assumed): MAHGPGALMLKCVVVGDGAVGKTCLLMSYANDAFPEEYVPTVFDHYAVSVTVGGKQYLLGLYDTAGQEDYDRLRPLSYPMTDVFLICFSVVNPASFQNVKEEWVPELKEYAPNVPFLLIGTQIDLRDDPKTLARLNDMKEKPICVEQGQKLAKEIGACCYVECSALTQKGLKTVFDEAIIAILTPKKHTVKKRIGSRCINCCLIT
# Method: as §1
# RhoA = target: T2, RhoA (Homo sapiens, UniProt P61586); experiment: as above; assay type: binding; settings: concentrations well above physiological levels
# T2 construct: 6His; made in house; host or cells: E. coli BL21DE3, only by the words 'analogous procedures'
# T2 sequence (P61586 whole entry, species assumed): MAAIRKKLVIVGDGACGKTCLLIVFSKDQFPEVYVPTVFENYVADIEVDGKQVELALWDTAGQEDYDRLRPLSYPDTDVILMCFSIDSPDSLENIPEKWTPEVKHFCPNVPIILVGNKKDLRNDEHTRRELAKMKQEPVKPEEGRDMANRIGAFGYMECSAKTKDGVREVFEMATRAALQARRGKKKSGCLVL
# Method: as §1
molecule,measurement,setting,value
C[C@@H](N)[C@H]1CC[C@H](C(=O)Nc2ccncc2)CC1 [Y27632],effect on protrusions,Rho kinase,caused protrusions to continue expanding even after Cdc42 activity decreased
B1,Cdc42 activation reported by biosensor in living cells,Cdc42,showed localized Cdc42 activation even in unstimulated cells; also recorded: consistently showed activation in the trans-Golgi apparatus of endothelial cells
B2,interaction with Rac,Rac,did not interact
same,response to TC10,TC10,responded
same,interaction with RhoA,RhoA,did not interact
